Reference: patent US20040170622A1, “Methods and compositions for modulating XBP-1 activity” (President and Fellows of Harvard College, priority 2002, published 2004)

Assays:
XBP-1s = assay: UPRE-luciferase reporter in NIH3T3 cells; type: cell-based
Description: (A) Ubiquitination of XBP-1 in HeLa cells were cotransfected with XBP-1u and His-tagged ubiquitin expression plasmids. (B) Degradation rates of XBP-1u and XBP-1s proteins were determined by pulse labeling J558 cells with ^35S Met/Cys for 1 hr and chasing for the indicated times. (C) Effect of XBP-1u on XBP-1s dependent UPRE activation in PI-treated NIH3T3 cells with 8-fold excess of XBP-1u plasmids. Transfected cells were treated with MG-132 for 16 hrs before harvesting for luciferase assays. Values represent fold induction of activity compared to the reporter alone after normalizing to Renilla. (D) Generation and expression of lysine to arginine XBP-1u mutants. Two or three lysine residues in the C-terminus of XBP-1u were replaced by arginine to generate XBP-1uKK (235, 252) and XBP-1uKKK(146, 235, 252) by site-directed mutagenesis. dn-XBP contains the N-terminal 188 aa of XBP-1u. Western blot analysis was performed with NIH3T3 extracts transfected with the indicated plasmids. E) Inhibition of XBP-1 dependent activation of the UPRE reporter in NIH 3T3 cells by XBP-1u lysine to arginine mutants.
Two or three lysine residues in the C-terminus of XBP-1u were replaced by arginines to generate XBP-1uKK (K235R, K252R) and XBP-1uKKK(K146R, K235R, K252R) by site-directed mutagenesis (Iwakoshi et al.2003 Nature Immunology 4: 321-329). dn-XBP contains the N-terminal 188 aa of XBP-1u. NTH3T3 cells were transfected by using the Lipofectamine2000 reagent as recommended by the manufacturer (Invitrogen, Carlsbad, Calif.) with indicated amount of UPRE (UPR element) reporter (Wang et al. 2000 J Biol Chem 275: 27013-27020) and various effector plasmids. Cells were treated for 16 hours before harvest in certain experiments. Cells were lysed in passive lysis buffer for dual luciferase assays according to the manufacturer's protocol (Promega, Madison, Wis.).

XBP-1^−/− B cells = assay: Ig production by retrovirally transduced XBP-1-/- primary B cells (ELISA); type: cell-based, mouse; conditions: LPS 10 μg/ml 72 h
Description: (§1) Assays to measure immunoglobulin or cytokine levels in culture supernatants were performed as described (e.g., Hodge et al., 1996 Immunity. 4:397-405 or Science. 1996 274:1903-5).
(§2) The XBP-1 cDNAs for the unspliced (XBP-1u/s) and the spliced (XBP-1s) forms were PCR-amplified from the total RNA of untreated and tunicamycin treated NIH3T3 cells, respectively, with a primer set (5′-[…]-3′ (SEQ ID NO: 7) and 5′-[…]-3′) (SEQ ID NO: 8). XBP-1u form was generated by a PCR-based mutagenesis from XBP-unspliced/s cDNA so that the two G residues at position 532 and 535 were changed to A without changing amino acid sequences in the XBP-1u open reading frame. Numbers are based on the sequences from gene bank database (NM_013842 [gi:13775155]). These XBP-1 cDNAs were inserted into the GFP-RV retroviral vector by using blunt end ligation (Sambrook et al., 1989). EFFECTENE transfection (Quiagen) was used to introduce the DNA into the Phoenix cell line as described by manufacturer (e.g., Reimold et al., 2001 Nature. 412:300-7 or Int Immunol. 2001 13:241-8). Viral supernatants were harvested after 48 hours and frozen at −80° C. for later use. B cells were purified from mouse spleens using CD43 depletion or positive selection with B220+ magnetic beads as described by the manufacturer (MidiMacs, Miltenyi Biotech). B cell purity was generally near 95% as confirmed by flow cytometry. The B cells (10^6 cells /ml) were then activated in culture with LPS 10 μg/ml and F (ab′)2 anti-IgM (5 μg/ml Southern Biotechnology Associates Inc.) for 24 hours. The 1 ml of activated B cells (10^6 cells/ml) were mixed with 4 μg of polybrene and 1 ml of virus-containing supernatant and spun at 1000 g for 45 minutes at 24° C. Cells were incubated for 24-36 h at 37° C. and then GFP+ cells were flow sorted and returned to culture with and without stimulation.
The effects of these three different forms of XBP-1 on Ig secretion were compared in wild type and XBP-1^−/− B cells. In vitro activated splenic B cells were transduced using retroviruses expressing bicistronic mRNA encoding XBP-1u/s, XBP-1s, XBP-1u or control GFP. In FIGS. 5(A) and (B) purified B cells from wt and XBP-1^−/− mice were activated in culture with LPS 10 μg/ml and F (ab′)2 anti-IgM (5 μg/ml) for 24 hours. Retroviral transduction with GFP alone (GFP-Rv), XBP-1u/s (XBP-1u/s GFP Rv), XBP-1s (XBP-1s GFP Rv) or XBP-1u (XBP-1u GFP Rv) of activated B cells was performed. Cells were incubated for 24-36 h at 37° C. and then GFP+ cells were flow sorted and then returned to culture with LPS stimulation (10 μg/ml) for 72 h. IgM panel(A) and IgG2b panel (B) production analyzed by ELISA from culture supernatants of stimulated B cells. Experiments were done at least three times and standard deviation is shown.

IL-6 = IL-6 production by retrovirally transduced wt and XBP-1-/- B cells (ELISA, Northern blot); type: cell-based, murine; conditions: wild type and XBP-1-/- cells
Description: as §1, §2
In human multiple myeloma cells, XBP-1 was induced by IL-6 treatment and implicated in the proliferation of malignant plasma cells (Wen et al., 1999). However, no role for IL-6 in upregulating XBP-1 transcripts or in mediating splicing of XBP-1 RNA in mature B cells has been described (FIG. 6A). The ability of XBP-1 to induce IL-6 production in wt and XBP-1^−/− primary B cells was tested. As described above, in vitro activated murine splenic B cells were transduced using retroviruses expressing bicistronic mRNA for XBP-1u/s, XBP-1s, XBP-1u and control GFP. After cell sorting, GFP^+ cells were stimulated with LPS and assayed for cytokine production after 72 h. In FIG. 6 panel (A) purified B cells from wt and XBP-1^−/− mice were activated in culture with LPS 10 μg/ml and F(ab′)2 anti-IgM (5 μg/ml ) for 24 hours. Retroviral transduction with GFP alone (GFP-Rv), XBP-1u/s (XBP-1 u/s GFP Rv), XBP-1s (XBP-1s GFP Rv) or XBP-1u (XBP-1u GFP Rv) of activated B cells was performed. Cells were incubated for 24-36 h at 37° C. and then GFP+ cells were flow sorted and then returned to culture with LPS stimulation (10 μg/ml) for 72 h. Cytokine production was analyzed by ELISA from culture supernatants of stimulated B cells. Experiments were done at least three times and standard deviation is shown. In panel (B) Total RNAs were prepared from stimulated B cells above and XBP-1 mRNA levels were determined by Northern blot analysis with γ-actin control

XBP-1 = assay: XBP-luciferase reporter in NIH3T3 cells; type: cell-based; conditions: in the presence of 5 uM MG-132; with unspliced XBP-1 (41.9 without)
Description: The fold induction of luciferase was measured in NIH3T3 cells bearing XBP-luciferase. The constructs included four copies of the XBP-1 target sequence TGGATGACGTGTACA (SEQ ID NO: 9) fused to the minimal promoter of the mouse RANTES gene (Clauss et al. Nucleic Acids Research 1996. 24:1855) or five copies of the ATF6/XBP-1 target […] (SEQ ID NO: 10) and comprising −53/+45 of the cfos promoter (J. Biol. Chem. 275:27013). In the presence of 5 uM MG-132, the presence of unspliced XBP-1 inhibits the fold induction of luciferase from 41.9 to 5.8. Thus, in the presence of proteasome inhibitors, the unspliced protein blocks the function of the spliced protein.

B1: XBP-1u: murine XBP-1 with point mutations at loop positions −1 and +3; yields only unspliced 33 K protein (protein)
chain: MVVVAAAPSAATAAPKVLLLSGQPASGGRALPLMVPGPRAAGSEASGTPQARKRQRLTHLSPEEKALRRKLKNRVAAQTARDRKKARMSELEQQVVDLEEENHKLQLENQLLREKTHGLVVENQELRTRLGMDTLDPDEVPEVEAKGSGVRLVAGSAESAALRLCAPLQQVQAQLSPPQNIFPWTLTLLPLQILSLISFWAFWTSWTLSCFSNVLPQSLLVWRNSQRSTQKDLVPYQPPFLCQWGPHQPSWKPLMNSFVLTMYTPSL
B1 was tested, and the UPRE reporter activity (XBP-1s; in the absence of treatment) was “but not XBP-1u, greatly increased reporter activity”, the “effect on transactivation of UPRE reporter by XBP-1s” value (XBP-1s; in the presence of MG-132, 16 hrs, 8-fold excess of XBP-1u plasmid) was “significantly suppressed transactivation of the reporter by XBP-1s” and the “secretion of IgG2b compared to control cells” value (XBP-1^−/− B cells) was “unable to increase IgG secretion”. For the same molecule, the “secretion of IgM compared to control cells” value (XBP-1^−/− B cells) was “unable to increase IgM secretion”, the IL-6 amounts expressed (IL-6) was “moderate amounts of IL-6” and the “fold induction of luciferase” value (XBP-1) was 5.8.
